Consider three molecules from paper PMC6698736.

Data set [1] has as its target KacA, wild type, purified alone (Klebsiella pneumoniae). Briefly: SEC-MALS.
Data set [2] addresses KacA (coexpressed in KacAT);KacT (Klebsiella pneumoniae;Klebsiella …, UniProt A0A0H3GLZ1;A0A0H3GMP0 1-88;1-177, |). The experiment in a line: X-ray crystallography.

With KacT^Y145F (enzyme), in data set [1], the N, peak α (KacT per KacA (8:8)) amounted to 1 and the N, peak β (KacT per KacA (2:4)) worked out at 0.5.

In data set [1], “KacA, wild type, purified alone (natural protein)” yielded a stoichiometry N of 2.

B1: 27-bp kacAT operator duplex (dsDNA)
DNA 1: AAATGTACGGTTATTAACCGTACATGA
DNA 2: TCATGTACGGTTAATAACCGTACATTT
In the case of B1, the binding result in data set [2] is recorded as “binds”.
